Consider one substance from publication PMC3902949.

In the assay the target is Saccharomyces cerevisiae Rad51 protein (S. cerevisiae) (UniProt P25454). The assay can be described thus: SEC; 10 µM Rad51 and 20 µM Rad52 fragment incubated at room temperature for 1 h, or each protein alone; Superdex 200 10/300 GL in 20 mM Hepes-KOH pH 7.5, 0.1 M KCl, 0.5 mM EDTA, 10% glycerol, 2 mM 2-mercaptoethanol; peak fractions analysed by SDS-PAGE.
UniProt P25454, sequence (P25454 whole entry, the tested form may be a part): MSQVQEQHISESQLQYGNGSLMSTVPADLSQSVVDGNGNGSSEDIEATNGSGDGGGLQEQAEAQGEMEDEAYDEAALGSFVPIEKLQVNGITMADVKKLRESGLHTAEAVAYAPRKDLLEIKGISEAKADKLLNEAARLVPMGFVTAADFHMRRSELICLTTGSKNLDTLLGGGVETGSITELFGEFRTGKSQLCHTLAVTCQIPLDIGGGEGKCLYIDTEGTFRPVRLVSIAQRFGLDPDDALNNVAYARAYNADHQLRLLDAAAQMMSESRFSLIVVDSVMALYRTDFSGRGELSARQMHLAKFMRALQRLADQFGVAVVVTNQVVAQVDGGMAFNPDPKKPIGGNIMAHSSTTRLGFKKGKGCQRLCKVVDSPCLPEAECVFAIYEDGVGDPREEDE

On to “Rad52^233–504 (C-terminal half of the Saccharomyces cerevisiae Rad52 protein) (domain or fragment)”, for which the stoichiometry N was determined as 1.
